This series deals with Saccharomyces cerevisiae. Nature of the series: protein stability index of tFT-peptide fusion (C-terminal peptide) (PSI (0-1 scale)); higher = more stable (slower turnover). The following applies: temperature: 30 C. Here is the method: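 MPS profiling in S. cerevisiae of the yeast C-terminome library: the last 12 aa of each annotated ORF are fused to the C-terminus of a sfGFP-mCherry timer, after a GGGS linker. Cells are FACS-sorted into 8 mCherry/sfGFP bins and deep-sequenced. PSI runs from 0 (unstable) to 1 (stable); wild type and das1Δ backgrounds, two technical replicates each.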

Where [1] appears, read: genetic background: das1 deletion.

± gives the standard deviation of the averaged measurements.

For the sequence EKHSFSTTQQVV [NRT1 C-terminal 12 aa], the protein stability index by setting is: under setting [1], 0.666 ± 0.019; (genetic background: wild type) 0.664 ± 0.028.
In the case of EKKKIFKGNKTD [YLR030W C-terminal 12 aa], the protein stability index runs as follows: under setting [1], 0.696 ± 0.036; (genetic background: wild type) 0.669 ± 0.012.
For EKMKKNQSIGWF [MRPL25 C-terminal 12 aa] the same measures were 0.756 ± 0.02 and 0.73159 ± 0.00064.
For EKSSVKRPCVKK [RKM4 C-terminal 12 aa] the same measures were 0.674 ± 0.02 and 0.701 ± 0.0034.
For EKTVNFIKTFGV [GUT2 C-terminal 12 aa] the same measures were 0.6956 ± 0.0026 and 0.71 ± 0.035.
As to ELKEGRTFLGRS [APQ13 C-terminal 12 aa], the protein stability index is 0.703 ± 0.014 under setting [1] and 0.695 ± 0.028 (genetic background: wild type).
The corresponding values for ELSDLENKLGKK [RCF1 C-terminal 12 aa] are 0.6843 ± 0.0062 and 0.6991 ± 0.0033.
For ELSNNLNVDEFV [LRS4 C-terminal 12 aa] the same measures were 0.692 ± 0.0034 and 0.687 ± 0.034.
For ELTDFKYPSNYE [PUT2 C-terminal 12 aa] the same measures were 0.6787 ± 0.0024 and 0.711 ± 0.066.
Sequence EMRKRFFEKDLL [RAP1 C-terminal 12 aa] gave a protein stability index under setting [1] of 0.696 ± 0.022 and a protein stability index (genetic background: wild type) of 0.723 ± 0.059.
The corresponding values for ENIEVILSNGRM [SNF12 C-terminal 12 aa] are 0.676 ± 0.03 and 0.689 ± 0.037.
The corresponding values for ENKLWNTEYFFC [ECM34 C-terminal 12 aa] are 0.738 ± 0.018 and 0.6655 ± 0.0018.
The corresponding values for ENLENKINNLSK [STF1 C-terminal 12 aa] are 0.709 ± 0.025 and 0.698 ± 0.034.
Turning to ENNDNDDNDGLF [CTR9 C-terminal 12 aa], the protein stability index by setting is: under setting [1], 0.707 ± 0.037; (genetic background: wild type) 0.701 ± 0.048.
The corresponding values for ENNEKFLNIRLY [CDC24 C-terminal 12 aa] are 0.71 ± 0.026 and 0.668 ± 0.013.
For ENVLNKEGVLQK [GIN4 C-terminal 12 aa] the same measures were 0.682 ± 0.012 and 0.734 ± 0.047.
The corresponding values for EPAYDGASVEQQ [THR1 C-terminal 12 aa] are 0.688 ± 0.0074 and 0.6724 ± 0.0055.
As to EPEAEQAVEDTA [HSP30 C-terminal 12 aa], the protein stability index is, setting by setting: under setting [1], 0.685 ± 0.018; (genetic background: wild type) 0.6594 ± 0.0041.
The corresponding values for EPRYNDDAQVSD [KCS1 C-terminal 12 aa] are 0.684 ± 0.018 and 0.663 ± 0.064.
For EREGGDEHDDMA [PWP1 C-terminal 12 aa] the same measures were 0.684 ± 0.015 and 0.708 ± 0.035.
The corresponding values for ERRLNAIINGEV [YTH1 C-terminal 12 aa] are 0.689 ± 0.024 and 0.685 ± 0.034.
Take ESDHPTLADNSV [MRL1 C-terminal 12 aa]: the protein stability index is, setting by setting: under setting [1], 0.6955 ± 0.0041; (genetic background: wild type) 0.6912 ± 0.00095.
As to ESEKELYNATLA [NHP6A C-terminal 12 aa], the protein stability index came out at 0.697 ± 0.011 under setting [1] and 0.718 ± 0.0079 (genetic background: wild type).
The corresponding values for ESGLQSINESTL [ALY2 C-terminal 12 aa] are 0.7074 ± 0.0047 and 0.706 ± 0.05.
For ESSAFEYPGGRL [BOI1 C-terminal 12 aa] the same measures were 0.7086 ± 0.0049 and 0.69 ± 0.0096.
The corresponding values for ESTPKDAARSTN [ASF1 C-terminal 12 aa] are 0.69 ± 0.025 and 0.705 ± 0.028.
Turning to ETNNVFQDAILR [DOC1 C-terminal 12 aa], the protein stability index reads like this: under setting [1], 0.698 ± 0.013; (genetic background: wild type) 0.683 ± 0.017.
The corresponding values for ETPLLYNDTHTP [IES5 C-terminal 12 aa] are 0.696 ± 0.042 and 0.695 ± 0.009.
Consider ETYGSKIVYRFS [GAL10 C-terminal 12 aa], for which the protein stability index runs as follows: under setting [1], 0.692 ± 0.031; (genetic background: wild type) 0.7035 ± 0.0018.
The corresponding values for EVAKSLTLQYDV [CNB1 C-terminal 12 aa] are 0.699 ± 0.0073 and 0.68 ± 0.015.
For EVENDRQIHRML [IDI1 C-terminal 12 aa] the same measures were 0.6924 ± 0.0013 and 0.682 ± 0.01.
For EWSFASSGYKDD [PPN1 C-terminal 12 aa] the same measures were 0.7115 ± 0.0032 and 0.794 ± 0.041.
On to FADKIKPTKVAE [MCK1 C-terminal 12 aa], for which the protein stability index turned out to be 0.693 ± 0.015 under setting [1] and 0.691 ± 0.023 (genetic background: wild type).
The corresponding values for FCAAYQGKKNNK [SLN1 C-terminal 12 aa] are 0.696 ± 0.022 and 0.659 ± 0.039.
The corresponding values for FDIKKANSATLA [TMA46 C-terminal 12 aa] are 0.6584 ± 0.0037 and 0.634 ± 0.019.
The corresponding values for FELVQPKGRRKH [TSR2 C-terminal 12 aa] are 0.711 ± 0.016 and 0.686 ± 0.058.
Consider FFLRSAAVYQPF [YPR197C C-terminal 12 aa], for which the protein stability index is, setting by setting: under setting [1], 0.6949 ± 0.003; (genetic background: wild type) 0.6815 ± 0.0047.
The corresponding values for “FFNISVSTKISF [YER175W-A C-terminal 12 aa]” are 0.6797 ± 0.00033 and 0.659 ± 0.04.
For FFSRVKSFKDPG [HRT3 C-terminal 12 aa] the same measures were 0.7153 ± 0.0048 and 0.688 ± 0.022.
The corresponding values for “FHPLFYCSALVF [YIL142C-A C-terminal 12 aa]” are 0.256 ± 0.016 and 0.277 ± 0.015.
For FIEMSLASSFAG [MBR1 C-terminal 12 aa], the protein stability index reads like this: under setting [1], 0.713 ± 0.009; (genetic background: wild type) 0.704 ± 0.028.
For FILELKNICKCT [MOH1 C-terminal 12 aa] the same measures were 0.703 ± 0.026 and 0.525 ± 0.046.
The corresponding values for FINCSSKYNGLQ [YBR224W C-terminal 12 aa] are 0.687 ± 0.0088 and 0.703 ± 0.019.
For FKMCPFFISWFL [YBL073W C-terminal 12 aa] the same measures were 0.6013 ± 0.0016 and 0.563 ± 0.032.
As to FLDKNKKEQSDS [ECM9 C-terminal 12 aa], the protein stability index came out at 0.678 ± 0.029 under setting [1] and 0.771 ± 0.08 (genetic background: wild type).
For FLLTASRGIAQF [YBR116C C-terminal 12 aa] the same measures were 0.6752 ± 0.0048 and 0.74 ± 0.088.
For FPCAGSAMGSLT [YMR103C C-terminal 12 aa] the same measures were 0.703 ± 0.011 and 0.684 ± 0.01.
The corresponding values for FPQLNGLLRLQH [YPR014C C-terminal 12 aa] are 0.698 ± 0.015 and 0.681 ± 0.028.
As to FQPLLKKNQVGY [THI3 C-terminal 12 aa], the protein stability index was found to be 0.704 ± 0.028 under setting [1] and 0.693 ± 0.012 (genetic background: wild type).
The corresponding values for FSLLSFISYFLL [YPS6 C-terminal 12 aa] are 0.665 ± 0.053 and 0.379 ± 0.011.
The corresponding values for FSMLANRITIGL [YJL175W C-terminal 12 aa] are 0.657 ± 0.016 and 0.64 ± 0.014.
For FSSFKFLDTSYL [CKI1 C-terminal 12 aa] the same measures were 0.748 ± 0.0096 and 0.697 ± 0.048.
Regarding “FTPSYIPEPVLL [YOR161W-B C-terminal 12 aa]”, the protein stability index came to 0.671 ± 0.012 under setting [1] and 0.654 ± 0.013 (genetic background: wild type).
The corresponding values for FVAEAYLDEFVY [ARC19 C-terminal 12 aa] are 0.71 ± 0.03 and 0.662 ± 0.02.
For FVKTIADTLSFS [PRR1 C-terminal 12 aa] the same measures were 0.6997 ± 0.0036 and 0.7061 ± 0.0011.
For FVLPTWAAKELN [SPE3 C-terminal 12 aa] the same measures were 0.7195 ± 0.0063 and 0.69 ± 0.03.
With FYVCYQLYHLVF [DPM1 C-terminal 12 aa], the protein stability index reads like this: under setting [1], 0.355 ± 0.012; (genetic background: wild type) 0.347 ± 0.022.
As for GALREVIKLQKQ [SLX9 C-terminal 12 aa], the protein stability index reads like this: under setting [1], 0.704 ± 0.035; (genetic background: wild type) 0.656 ± 0.0067.
Turning to GALVGYTIGAYI [GPI11 C-terminal 12 aa], the protein stability index by setting is: under setting [1], 0.666 ± 0.015; (genetic background: wild type) 0.673 ± 0.055.
GAPANKRPRRGL [SMD1 C-terminal 12 aa]: the protein stability index is, setting by setting: under setting [1], 0.737 ± 0.026; (genetic background: wild type) 0.7365 ± 0.0044.
For GDPIDLKEKKLN [RER2 C-terminal 12 aa] the same measures were 0.705 ± 0.031 and 0.196 ± 0.032.
The corresponding values for GDTLYEEFGISK [ARO8 C-terminal 12 aa] are 0.709 ± 0.0035 and 0.712 ± 0.046.
With GESSINSSTRHA [CTK2 C-terminal 12 aa], the protein stability index was determined as 0.683 ± 0.015 under setting [1] and 0.6853 ± 0.0058 (genetic background: wild type).
GEYLRDEDTLFT [NIP7 C-terminal 12 aa] gave a protein stability index under setting [1] of 0.727 ± 0.011 and a protein stability index (genetic background: wild type) of 0.725 ± 0.013.
The corresponding values for “GFRPAGATRFYS [YHR086W-A C-terminal 12 aa]” are 0.6965 ± 0.0029 and 0.691 ± 0.016.
For GGFFKKLAQLLK [MDG1 C-terminal 12 aa] the same measures were 0.704 ± 0.015 and 0.719 ± 0.07.
On to GGLHFHGESFAL [FRE8 C-terminal 12 aa], for which the protein stability index was found to be 0.699 ± 0.0096 under setting [1] and 0.712 ± 0.036 (genetic background: wild type).

The values above are taken from the supplement of paper PMC10724198.
